Here are results for three substances from patent US20150274799A1, “GLP-1 ANALOGUE, ITS PREPARATION METHODS AND USE THEREOF” (TIANJIN INSTITUTE OF PHARMACEUTICAL RESEARCH, priority 2011, published 2015).

Ends that are not written are not given here.

For series [1] the following is noted: cited from earlier work.
The conditions of series [2]: in vivo; cited from earlier work.

Consider HAEGTFTSDVSSYLEGQAAKEFIAWLVKGRG [GLP-1], for which the serum half-life in series [1] was 3 to 5 min. Also, the “half-life of GLP-1 administered alone” value in series [2] was 3 to 5 min. Take “^7HAEGT FTSDVSSYLEGQAAKEFICWLCKGRG^37GG C GGGGG GGGGG (HAEGTFTSDVSSYLEGQAAKEFICWLCKGRGGGCGGGGGGGGGG; disulfide (positions not given here); also: contains disulfide bonds, places not given here (three Cys)) [SEQ ID NO 58]”: the “half-life in human serum” value is listed as > 24 h. For “^7HAEGT FTSDVSSYLEGQAAKEFICWLCKGRG^37GG C GGGGG GGGGGGGGGG (HAEGTFTSDVSSYLEGQAAKEFICWLCKGRGGGCGGGGGGGGGGGGGGG; disulfide (positions not given here); also: contains disulfide bonds, places not given here (three Cys)) [SEQ ID NO 59]”, the “half-life in human serum” value is > 24 h.
